The target in data set [1] is T1, Raptor1B fused N- or C-terminally to the GSrhino TAP tag, TAP-purified from PSB-D cell cultures.
T1 chain: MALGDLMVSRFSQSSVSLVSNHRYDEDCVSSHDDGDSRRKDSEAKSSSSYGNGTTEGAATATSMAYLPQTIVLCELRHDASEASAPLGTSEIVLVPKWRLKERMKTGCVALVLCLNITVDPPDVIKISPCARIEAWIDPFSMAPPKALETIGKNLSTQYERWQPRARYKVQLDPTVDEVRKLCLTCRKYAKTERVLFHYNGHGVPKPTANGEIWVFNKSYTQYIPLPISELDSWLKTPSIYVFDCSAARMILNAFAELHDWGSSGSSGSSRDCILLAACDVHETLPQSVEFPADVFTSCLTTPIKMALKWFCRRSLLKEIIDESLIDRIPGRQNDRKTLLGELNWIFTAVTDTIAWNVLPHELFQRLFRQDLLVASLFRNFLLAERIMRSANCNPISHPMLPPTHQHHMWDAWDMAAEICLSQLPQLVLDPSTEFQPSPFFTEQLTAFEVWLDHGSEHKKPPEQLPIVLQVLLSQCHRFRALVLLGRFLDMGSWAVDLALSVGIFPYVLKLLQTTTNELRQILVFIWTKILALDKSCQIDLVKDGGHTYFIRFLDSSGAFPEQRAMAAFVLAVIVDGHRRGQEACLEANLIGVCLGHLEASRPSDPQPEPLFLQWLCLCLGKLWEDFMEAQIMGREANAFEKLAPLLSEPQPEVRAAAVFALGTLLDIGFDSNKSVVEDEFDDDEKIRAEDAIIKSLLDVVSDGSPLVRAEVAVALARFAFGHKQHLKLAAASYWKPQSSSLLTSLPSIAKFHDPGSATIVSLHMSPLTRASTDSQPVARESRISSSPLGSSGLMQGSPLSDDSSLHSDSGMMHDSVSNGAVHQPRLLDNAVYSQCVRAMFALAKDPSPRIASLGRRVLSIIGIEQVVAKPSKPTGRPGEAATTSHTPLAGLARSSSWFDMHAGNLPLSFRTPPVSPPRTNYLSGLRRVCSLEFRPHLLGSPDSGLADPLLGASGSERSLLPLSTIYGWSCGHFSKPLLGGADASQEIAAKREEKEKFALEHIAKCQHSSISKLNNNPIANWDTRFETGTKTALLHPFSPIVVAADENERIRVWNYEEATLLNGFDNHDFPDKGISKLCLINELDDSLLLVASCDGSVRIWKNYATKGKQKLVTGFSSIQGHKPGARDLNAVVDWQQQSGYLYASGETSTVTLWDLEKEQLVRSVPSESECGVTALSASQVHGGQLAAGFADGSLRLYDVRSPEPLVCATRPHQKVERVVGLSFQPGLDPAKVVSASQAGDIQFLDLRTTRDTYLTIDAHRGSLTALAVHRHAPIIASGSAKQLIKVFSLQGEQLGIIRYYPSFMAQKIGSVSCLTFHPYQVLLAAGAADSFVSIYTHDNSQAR

The target in data set [2] is T2, LST8-1 fused C-terminally to the GSrhino tag, TAP-purified from PSB-D cell cultures, Q9LV27.
T2 chain: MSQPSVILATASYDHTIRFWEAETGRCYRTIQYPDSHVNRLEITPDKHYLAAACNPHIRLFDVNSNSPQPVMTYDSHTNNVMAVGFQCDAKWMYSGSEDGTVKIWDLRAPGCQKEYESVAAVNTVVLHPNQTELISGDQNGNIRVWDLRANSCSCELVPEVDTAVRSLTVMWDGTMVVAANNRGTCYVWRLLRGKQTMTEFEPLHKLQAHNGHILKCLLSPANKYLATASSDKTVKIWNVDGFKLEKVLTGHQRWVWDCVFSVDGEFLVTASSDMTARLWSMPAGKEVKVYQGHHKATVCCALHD

B1: Recombinant RSK1 (ARSK1) kinase, His-MBP fusion produced in E. coli BL21 (protein)
chain: MAVFKKKKTSLTSLFLGCYKAKNVSKYEGGEKAVMKIRTCPAFKRLSLSDISDPSSPMSVMDDLSHSFTSQKLRLFTLSELRVITHNFSRSNMLGEGGFGPVYKGFIDDKVKPGIEAQPVAVKALDLHGHQGHREWLAEILFLGQLSNKHLVKLIGFCCEEEQRVLVYEYMPRGSLENQLFRRNSLAMAWGIRMKIALGAAKGLAFLHEAEKPVIYRDFKTSNILLDSDYNAKLSDFGLAKDGPEGEHTHVTTRVMGTQGYAAPEYIMTGHLTTMNDVYSFGVVLLELITGKRSMDNTRTRREQSLVEWARPMLRDQRKLERIIDPRLANQHKTEAAQVAASLAYKCLSQHPKYRPTMCEVVKVLESIQEVDIRKHDGNNNKEGKKFVDINKFRHHRKGKRRVNIAYSDSLVYKESKAKQNDGI
With B1, the “in vitro kinase assay with ATP-P32, SDS-PAGE and autoradiography” value in data set [1] is “In the presence of ARSK1, the RAPTOR1B phosphosignal (lanes 2 and 3, rectangle) is higher compared to the control (lane 4; no ARSK1)”. For the same protein, the “in vitro kinase assay” value in data set [2] was “ARSK1 could not phosphorylate these two proteins”.

The values are drawn from patent publication US20250215444.
